Some targets named below: A*02:01 (Homo sapiens, UniProt P04439, D140Y/D185E/D98H/E176V/E277Q/G131W/G231S/I119V/I121R/I166T/I218V/L300P/L318F/N151K/N90K/P208A/P217A/Q86G/Q94H/R138H/R169H/T345S); B*27:05 (Homo sapiens, UniProt P01889, D138H/D201E/E176V/E204Q/G107R/H137Y/K202T/N104T/N87E/Q56L/Q94K/R106L/R155S/R180L/S101D/S121N/S48T/Y140D/Y33H/Y91C); A*11:01 (Homo sapiens, UniProt P04439, A114D/D185E/E176A/F33Y/L180Q/S129P/T187R); B*07:02 (Homo sapiens, UniProt P01889); A*24:02 (Homo sapiens, UniProt P04439, D101N/D140Y/D185E/E176V/E190D/F33S/G103R/G107R/I119L/I121M/I306V/K335N/L105A/L180Q/L300P/N151K/N90K/Q86E/Q94H/R106L/R138H/R89G/T104I/T345S/V100E/W191G/Y123F); A*03:01 (Homo sapiens, UniProt P04439); A*01:01 (Homo sapiens, UniProt P04439, A114D/A174V/A182V/D101N/D185E/E176A/E190D/L180R/Q94H/R68K/S129P/T187R/V100A/V91M/W191G).

Common to all, as to experiment: ProImmune REVEAL binding assay
The next assay deals with T1, H-2Kb (Mus musculus, UniProt P01901).
T1 sequence (P01901 22-295 limits assumed): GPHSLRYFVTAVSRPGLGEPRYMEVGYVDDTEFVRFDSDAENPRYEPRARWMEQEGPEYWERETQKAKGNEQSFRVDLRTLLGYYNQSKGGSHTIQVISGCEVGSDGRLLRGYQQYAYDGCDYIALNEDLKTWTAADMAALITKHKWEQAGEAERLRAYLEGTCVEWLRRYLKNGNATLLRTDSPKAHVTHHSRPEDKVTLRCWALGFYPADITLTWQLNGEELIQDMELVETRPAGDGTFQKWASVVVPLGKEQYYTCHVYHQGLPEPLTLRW
T1 sequence (P01887 21-119 partner): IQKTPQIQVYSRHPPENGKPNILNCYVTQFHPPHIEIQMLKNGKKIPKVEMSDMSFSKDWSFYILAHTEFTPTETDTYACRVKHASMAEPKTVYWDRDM

Regarding MWHVTRGAV, the “REVEAL® score at 0 h” value with A*02:01 is 62.7.

For ARGYISTRV, the “REVEAL® score at 0 h” value in the assay with B*27:05 amounted to 125.3.

Consider TVWFVPSIK, for which the “REVEAL® score at 0 h” value on A*11:01 came to 92.2.

Regarding VYNMMGKRE, on A*11:01, the “REVEAL® score at 0 h” value was 62.5.

For the sequence ISGDDCVVK, the “REVEAL® score at 0 h” value with A*11:01 worked out at 88.7.

Take LMRRGDLPV: the “REVEAL® score at 0 h” value worked out at 82.3 with A*02:01 and 178.9 with B*07:02.

Turning to LSRNSTHEM, the “REVEAL® score at 0 h” value with B*07:02 amounted to 124.5; with H-2Kb, 51.1.

AMTDTTPFG: at A*02:01, the “REVEAL® score at 0 h” value is given as 91.9.

Turning to LMCHATFTM, the “REVEAL® score at 0 h” value in the assay with A*02:01 turned out to be 72.9; with A*24:02, 99.5; with B*27:05 it was 98.2; with H-2Kb, 59.0.

Consider LGCGRGGWS, for which, on A*24:02, the “REVEAL® score at 0 h” value stood at 74.8.

For TMWHVTRGA, the “REVEAL® score at 0 h” value on A*02:01 came to 112.0.

Regarding MGEAAAIFM, the “REVEAL® score at 0 h” value with A*02:01 is listed as 50.6.

In the case of RRGDLPVWL, in the assay with B*27:05, the “REVEAL® score at 0 h” value is 144.8.

Consider IPERSWNSG, for which the “REVEAL® score at 0 h” value with B*07:02 is recorded as 45.2.

PLSRNSTHE: in the assay with B*07:02, the “REVEAL® score at 0 h” value turned out to be 65.0.

Consider VVAAEMEEA, for which the “REVEAL® score at 0 h” value with A*02:01 is recorded as 92.2.

NMMGKREKK: the “REVEAL® score at 0 h” value at A*11:01 is on record as 77.9.

Consider VGTYGLNTF, for which, in the assay with A*24:02, the “REVEAL® score at 0 h” value was found to be 96.0.

On to LLCDIGESS, for which the “REVEAL® score at 0 h” value at A*02:01 was 93.9.

Take KQWFLDLPL: the “REVEAL® Score” value with A*02:01 is 86.0.

As for CHATFTMRL, the results for the “REVEAL® score at 0 h” value with A*24:02 and in the assay with H-2Kb were 75.9 and 60.3, respectively.

Regarding HTMWHVTRG, at A*11:01, the “REVEAL® score at 0 h” value is on record as 56.3.

For the sequence TLLCDIGES, at A*02:01, the “REVEAL® score at 0 h” value is given as 63.9.

In the case of HWTEAKMLL, in the assay with A*24:02, the “REVEAL® score at 0 h” value is reported as 103.2.

For MAMTDTTPF, the “REVEAL® score at 0 h” value on A*24:02 turned out to be 51.3; on B*07:02, 117.4.

As to YGLNTFTNM, the “REVEAL® score at 0 h” value in the assay with H-2Kb turned out to be 75.4.

GTYGLNTFT: the “REVEAL® score at 0 h” value with A*11:01 is listed as 63.6.

As for RQWFFDLPL, the “REVEAL® Score” value with A*02:01 was 80.5.

On to HATFTMRLL, for which, in the assay with H-2Kb, the “REVEAL® score at 0 h” value came to 69.5.

In the case of GQQRVFKEK, the “REVEAL® score at 0 h” value was found to be 47.1 on A*02:01, 59.6 at A*03:01, 85.5 at A*11:01 and 95.4 on B*27:05.

Regarding PERVILAGP, the “REVEAL® score at 0 h” value with B*07:02 was found to be 56.1.

As for YNMMGKREK, on A*11:01, the “REVEAL® score at 0 h” value came out at 80.9.

AISGDDCVV: the “REVEAL® score at 0 h” value in the assay with A*02:01 worked out at 91.1.

As to SRNSTHEMY, the “REVEAL® score at 0 h” value in the assay with B*07:02 is 52.0.

As to TPFGQQRVF, the “REVEAL® score at 0 h” value at B*07:02 was 112.7.

For the sequence WTEAKMLLD, in the assay with A*24:02, the “REVEAL® score at 0 h” value was determined as 94.7.

Take MCHATFTMR: the “REVEAL® score at 0 h” value stood at 86.8 in the assay with A*03:01 and 91.0 with A*11:01.

In the case of CVYNMMGKR, the figures for the “REVEAL® score at 0 h” value on A*03:01 and at A*11:01 were 81.6 and 113.2, respectively.

YFHRRDLRL: the “REVEAL® score at 0 h” value with A*24:02 worked out at 87.5.

Consider GEAAAIFMT, for which the “REVEAL® score at 0 h” value in the assay with A*02:01 is 74.3; with A*11:01 it was 50.3; with A*24:02 it was 58.9.

As to LMYFHRRDL, the “REVEAL® score at 0 h” value with A*02:01 is listed as 97.8; with B*07:02 it was 119.6; with H-2Kb, 54.9.

Regarding FKLTYQNKV, the “REVEAL® score at 0 h” value in the assay with B*27:05 turned out to be 53.7.

IVDLMCHAT: in the assay with A*02:01, the “REVEAL® score at 0 h” value came to 62.7.

As for LAPTRVVAA, the “REVEAL® score at 0 h” value with H-2Kb amounted to 102.5.

Turning to TTDISEMGA, the “REVEAL® score at 0 h” value at A*01:01 came out at 68.4.

KLTYQNKVV: in the assay with A*02:01, the “REVEAL® score at 0 h” value was determined as 92.3.

As to ATFTMRLLS, the “REVEAL® score at 0 h” value with A*11:01 was 58.5; with H-2Kb it was 55.6.

Consider FKPGTSGSP, for which the results for the “REVEAL® score at 0 h” value with B*07:02 and with H-2Kb were 50.4 and 45.7, respectively.

With GLYGNGVVT, the “REVEAL® score at 0 h” value with A*02:01 amounted to 87.7.

With QQRVFKEKV, the “REVEAL® score at 0 h” value in the assay with H-2Kb amounted to 63.4.
